From US20200222532A1 (ARGENX, published 2020)

Target: T1, CD70 (human, UniProt P32970 1-193)
T1 sequence (looked up): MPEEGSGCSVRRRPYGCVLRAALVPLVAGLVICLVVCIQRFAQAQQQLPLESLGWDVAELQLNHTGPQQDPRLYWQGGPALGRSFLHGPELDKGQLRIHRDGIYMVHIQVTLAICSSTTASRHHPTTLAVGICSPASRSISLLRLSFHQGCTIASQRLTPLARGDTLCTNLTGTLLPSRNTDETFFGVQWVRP
Experiment: cell-based or functional assay

B1: ARGX-110 (cusatuzumab) (antibody, V domains shown)
VH: EVQLVESGGGLVQPGGSLRLSCAASGFTFSVYYMNWVRQAPGKGLEWVSDINNEGGTTYYADSVKGRFTISRDNSKNSLYLQMNSLRAEDTAVYYCARDAGYSNHVPIFDSWGQGTLVTVSS
VL: QAVVTQEPSLTVSPGGTVTLTCGLKSGSVTSDNFPTWYQQTPGQAPRLLIYNTNTRHSGVPDRFSGSILGNKAALTITGAQADDEAEYFCALFISNPSVEFGGGTQLTVLG
  IC50 of killing of MOLM-13 AML cells in the presence of CFSE-labelled NK cells (ratio 1:1): 0.68 µg/mL
  IC50 of killing of MV4-11 AML cells in the presence of CFSE-labelled NK cells (ratio 1:1): 1.2 µg/mL
  IC50 of killing of NB4 AML cells in the presence of CFSE-labelled NK cells (ratio 1:1): 0.3 µg/mL
  IC50 of killing of NOMO-1 AML cells in the presence of CFSE-labelled NK cells (ratio 1:1): 0.14 µg/mL
